Laboratory results: publication doi:10.1101/2023.11.19.566349

Legend:
Assay in all cases: EMSA
[1] = biological target: T1, Tric1 SAM domain WT (Arabidopsis thaliana, UniProt Q9SCK3 191-261)
T1 sequence: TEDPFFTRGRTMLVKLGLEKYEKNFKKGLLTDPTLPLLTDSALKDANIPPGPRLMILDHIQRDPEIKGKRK

[2] = biological target: T2, Tric1 SAM Asp235Ala:Gly241Glu (Arabidopsis thaliana, UniProt Q9SCK3 191-261, D235A;G241E)
T2 sequence: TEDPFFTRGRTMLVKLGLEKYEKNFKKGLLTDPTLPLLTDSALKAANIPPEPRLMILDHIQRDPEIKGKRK

[3] = biological target: T3, Tric1 SAM Asp235Ala (Arabidopsis thaliana, UniProt Q9SCK3 191-261, D235A)
T3 sequence: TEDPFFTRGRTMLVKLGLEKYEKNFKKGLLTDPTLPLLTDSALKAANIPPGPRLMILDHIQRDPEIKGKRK

[4] = biological target: T4, Tric1 SAM Gly241Glu (Arabidopsis thaliana, UniProt Q9SCK3 191-261, G241E)
T4 sequence: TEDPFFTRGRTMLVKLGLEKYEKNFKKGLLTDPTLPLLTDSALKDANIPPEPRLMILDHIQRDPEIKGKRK

Binder: UCGCUUUGCAUGCGA (structured_RNA) [tRNAala T-arm]
- binding result [1]: binds
- binding result [2]: no binding
- binding result [3]: no binding
- binding result [4]: no binding
